What was measured:
[1] = Enzyme kinetics analysis of EaAiiA with patulin; conditions: 0.05 μM EaAiiA, patulin 0-0.4 mM, pH 7.5, 100 μM ZnCl2
Method: (6A) Michaelis-Menten kinetics analysis with 0.05 μM purified bacterial lactonase (EaAiiA), in activity buffer containing 100 mM Tris pH 7.5, 100 mM NaCl, 100 μM ZnCl2, at Error bars indicate standard deviation of three replicates for each treatment.
Enzyme kinetics analysis with patulin. EaAiiA activity (0.05 μM) with patulin was analyzed as follows: EaAiiA activity was measured by detecting the reduction in the UV absorbance (detected at 278 nm) of patulin at different concentrations (0-0.4 mM) in the presence of enzyme at a final concentration of 0.05 μM, in an activity buffer containing 100 mM Tris pH 7.5, 100 mM NaCl, 100 μM ZnCl2, in UV 96-well plates. An activity buffer was used as a negative control. The activity was monitored in a microtiter plate reader (BioTeK, Winooski, VT, USA). Reactions were performed as the concentration of organic solvent was lower than 1%. Vo initial rates were corrected for the patulin spontaneous hydrolysis background rate performed with an activity buffer. Kinetic parameters were obtained by GraphPad software as fitting initial rates directly to the Michaelis-Menten equation, standard deviations obtained from three independent measurements.

P. expansum = test: Pathogenicity assay in apples (EaAiiA)
Method: The lesion size of the treated apples was measured 3 days after inoculation with P. expansum. Mean values of 18 replicates are presented (**** p<0.0001, according to one-way ANOVA followed by Tukey-Kramer).
Pathogenicity assay in apples. P. expansum spores (50 spores/ml) were incubated in 1 ml LB medium/sterile water at 25° C. 300 rpm either alone or 2 μM EaAiiA, and apples were then inoculated and incubated in the same manner as described above. Enzyme incubated with 50 mM EDTA at 90° C. for 1 hour was used as a negative control (inactivated enzyme).

B1: EaAiiA: AHL lactonase encoded by Erwinia amylovora, metallo-β-lactamase fold (protein, listed as Erwinia amylovora)
chain: MNYHIIPVTAFAQNCSVIWCPETGEAALVDPGGDAQKIKHEIAALGLTVKQILLTHGHLDHVGAAAELAEHYDVPIVGPHKADKFWLDGLPQQSQMFGFDECAPLTPDRWLQEGEVVLVGNTVLEVLLCPGHTPGHIVFFERKARLLVSGDVIFSGGVGRSDFPQGSHQDLIASILNKLLPLGDDVTFIAGHGPMSTLGRERISNPFLQ
- kcat [1]: 5.426 ± 1.5 s⁻¹
- Km ([1]; read-out: estimated KM): 764 ± 284 µM
- effect of inactivated enzyme on inhibition of fungal colonization (P. expansum; EaAiiA inactivated by 90° C. and EDTA prior to incubation with spores): fully reduced the inhibition
- decline of colonized area (P. expansum; spores incubated with 2 μM EaAiiA prior to apple inoculation, third day after inoculation): 85%
